Experimental data published in publication PMC6335408 (Nature Communications, 2019).

Legend:
[1] = biological target: T1, USP7 Ubl45 (last two Ubl domains with the activating C-terminal tail) (UniProt Q93009 890-1102); test: SPR; GST-USP7CD captured by anti-GST antibody on CM5 chip, Ubl45 or Ubl45ΔC flowed over; Biacore T200, 25 °C; 20 mM HEPES pH 7.5, 100 mM NaCl, 1 mM DTT, 1 mM EDTA, 0.05% Tween-20, 1 mg/mL BSA, 1 mg/mL dextran; equilibrium fit 1:1, extrapolated; conditions: both partners purified
T1 construct: USP7 Ubl domains 4 and 5 with the C-terminal tail, residues 890-1102 (25 kDa); source: E. coli BL21, purified (Glutathione Sepharose, 3C cleavage, anion exchange, gel filtration); 15N-labelled in M9 minimal medium for NMR

[2] = biological target: T2, Ubl45^ΔC (tailless Ubl45) (UniProt Q93009 890-1082); test: as above; conditions: both partners purified
T2 construct: USP7 Ubl45 without the C-terminal tail: stop codon introduced at residue 1083; start 890 as told for Ubl45; also called tailless construct; source: E. coli BL21, purified (Glutathione Sepharose, 3C cleavage, anion exchange, gel filtration)
T2 sequence (Q93009 890-1082, stated change not applied): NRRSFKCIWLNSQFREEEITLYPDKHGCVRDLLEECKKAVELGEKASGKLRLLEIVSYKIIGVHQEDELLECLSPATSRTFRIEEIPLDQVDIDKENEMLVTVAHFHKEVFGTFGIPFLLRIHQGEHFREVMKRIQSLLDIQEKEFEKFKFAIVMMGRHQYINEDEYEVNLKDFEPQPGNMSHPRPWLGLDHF

T1 sequence (Q93009 890-1102): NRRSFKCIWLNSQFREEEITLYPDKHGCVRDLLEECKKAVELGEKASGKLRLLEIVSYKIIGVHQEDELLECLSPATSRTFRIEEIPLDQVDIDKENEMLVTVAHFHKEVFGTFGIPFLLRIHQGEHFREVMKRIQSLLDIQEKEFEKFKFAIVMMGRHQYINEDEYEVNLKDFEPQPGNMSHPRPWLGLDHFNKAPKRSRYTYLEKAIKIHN

Kd [1]: ~280 µM | Kd [2]: 420 µM
B1: GST-USP7CD (domain or fragment)
chain: KKHTGYVGLKNQGATCYMNSLLQTLFFTNQLRKAVYMMPTEGDDSSKSVPLALQRVFYELQHSDKPVGTKKLTKSFGWETLDSFMQHDVQELCRVLLDNVENKMKGTCVEGTIPKLFRGKMVSYIQCKEVDYRSDRREDYYDIQLSIKGKKNIFESFVDYVAVEQLDGDNKYDAGEHGLQEAEKGVKFLTLPPVLHLQLMRFMYDPQTDQNIKINDRFEFPEQLPLDEFLQKTDPKDPANYILHAVLVHSGDNHGGHYVVYLNPKGDGKWCKFDDDVVSRCTKEEAIEHNYGGHDDDLSVRHCTNAYMLVYIRESKLSEVLQAVTDHDIPQQLVERLQEEKRIEAQKRKERQE
modifications: GST tag (used for chip immobilisation) left out; limits 208-560 are the usual USP7 CD construct limits, not printed in the text (consistent with the stated 42 kDa)
